Measurements as given in patent publication US10413588B2, “Probiotic function of human intelectin” (Wisconsin Alumni Research Foundation, priority 2015, dated 2019).
“And” between values parts separate entries of the source, which are not always exact repeats. Equal entries are not always repeated.

Columns and labels:
[1] = test system: infant male fecal microbiome; experiment: Flow cytometry binding to infant fecal microbiome; design: species or system human; details: fecal sample, 15 μg/mL intelectin + 10 mM CaCl2
Description: Human fecal samples provide a non-invasive proxy of the intestinal microbiome of a patient. The inventors have isolated the intestinal microbiome from human fecal samples and analyzed it for hIntL-1 binding. The isolated microbiome was fixed using an aqueous solution of 1% formaldehyde. Cells were stained as described elsewhere, using either a solution including calcium ions (100 mM) or one containing the calcium ion chelator EDTA. Microbes were exposed to 20 mM HEPES (pH 7.2), 150 mM NaCl, 10 mM CaCl2, 15 μg/mL Strep-tagged-hIntL-1, 0.1% bovine serum albumin (BSA), 0.05% tween-20, 2 μg/mL StrepMAB Classic conjugated to Oyster 645 (IBA Lifesciences, cat. no.: 2-1555-050). […] Cells are analyzed consecutively on a BD LSRII flow cytometer using identical instrument setting. […]
Humans have two intelectins: hIntL-1 and human intelectin-2 (hIntL-2). […] To compare hIntL-1 and hIntL02, the inventors isolated the intestinal mirobiome from human feces and analyzed it for hIntL-2 binding. […] The samples were processed and analyzed as described above. Cells were analyzed consecutively on a BD LSRII flow cytometer using identical instrument setting. […]

[2] = Mouse intelectin-1 SPR on immobilized carbohydrates; format: binding; details: referenced to biotin channel
From the text: FIG. 23. Mouse intelectin-1 binding to immobilized carbohydrates. Purified Strep-mIntL-1 binding to immobilized carbohydrates monitored using SPR. […] Data are referenced to the biotin channel.

| Molecule | fraction of cells of the infant microbiome bound by the intelectin [1] | carbohydrate binding on addition of EDTA [2] |
| --- | --- | --- |
| hIntL-2: human intelectin-2, accession no. Q8WWU7, highly homologous to hIntL-1 (protein, listed as Homo sapiens) MLSMLRTMTRLCFLLFFSVATSGCSAAAASSLEMLSREFETCAFSFSSLPRSCKEIKERCHSAGDGLYFLRTKNGVVYQTFCDMTSGGGGWTLVASVHENDMRGKCTVGDRWSSQQGNKADYPEGDGNWANYNTFGSAEAATSDDYKNPGYYDIQAKDLGIWHVPNKSPMQHWRNSALLRYRTNTGFLQRLGHNLFGIYQKYPVKYRSGKCWNDNGPAIPVVYDFGDAKKTASYYSPYGQREFVAGFVQFRVFNNERAANALCAGIKVTGCNTEHHCIGGGGFFPQGKPRQCGDFSAFDWDGYGTHVKSSCSREITEAAVLLFYR | ~32% and 32.2% |  |
| Strep-mIntL-1: purified Strep-tagged mouse intelectin-1 (protein, UniProt O88310 19-298, looked up, Strep-tag) Intelectin-1a: AAEENLDTNRWGNSFFSSLPRSCKEIKQEHTKAQDGLYFLRTKNGVIYQTFCDMTTAGGGWTLVASVHENNMRGKCTVGDRWSSQQGNRADYPEGDGNWANYNTFGSAEAATSDDYKNPGYFDIQAENLGIWHVPNKSPLHNWRKSSLLRYRTFTGFLQHLGHNLFGLYKKYPVKYGEGKCWTDNGPALPVVYDFGDARKTASYYSPSGQREFTAGYVQFRVFNNERAASALCAGVRVTGCNTEHHCIGGGGFFPEGNPVQCGDFASFDWDGYGTHNGYS |  | prevents carbohydrate binding |
